Reference: PMC10450692

What was measured:
Assay in all cases: native MS; native nanoESI ion mobility MS (Synapt G2-S), 20 μM peptide in 200 mM ammonium acetate pH 6.8, positive ion mode, 25 °C source temperature; self-association of SEC-purified monomer
scrambled Aβ(1–40) = molecular target: scrambled Aβ(1–40)
Aβ(1–28) = molecular target: Aβ(1–28)
[1] = molecular target: Aβ(1–40)CC (A21C and A30C double mutant with an intramolecular disulfide bond)
Aβ(1–16) = molecular target: Aβ(1–16)
Aβ(1–38) = molecular target: Aβ(1–38)
[2] = molecular target: amyloid-β peptide Aβ(1–40)

## scrambled Aβ(1–40) (peptide)
Scrambled Aβ(1–40)
  stoichiometry N: 2

## Aβ(1–28) (peptide)
Aβ(1–28)
  stoichiometry N: 6

## Aβ(1–40)CC (A21C and A30C double mutant with an intramolecular disulfide bond) (peptide)
[1]
  stoichiometry N: > 10

## Aβ(1–16) (peptide)
Aβ(1–16)
  stoichiometry N: 2

## Aβ(1–38) (peptide)
Aβ(1–38)
  stoichiometry N: > 6

## amyloid-β peptide Aβ(1–40)
[2]
  stoichiometry N: > 8
